Data on 4 molecules can be found in US5624904A, “Method for treating gram positive septicemia” (Massachusetts Institute of Technology, priority 1993, dated 1997).

Assay [1] deals with soluble MSRP. Nature of the assay: bead-binding competition assay: ligands interfering with binding of labeled soluble receptor to poly G beads, M-BSA beads or LTA. To be noted: inhibitor at 400 μg/ml. Here is the method:
The ability of the soluble MSRP to block scavenger receptor-mediated cellular metabolism of known MSRP ligands, such as radiolabeled endotoxin, whole Gram-positive bacteria, or LTA, is measured by competitive inhibition assays. […] This bead-binding assay can be used to measure the association of endotoxin, lipid IVA, LTA, and similar molecules, to soluble forms of the MSRP.

The test system of assay [2] is Enterococcus hirae. Nature of the assay: microbial binding assay (whole cell assay) of [35S]s-bSR-I. Here is the method:
(§1) Gram-positive bacteria were grown overnight either on LB agar plates (L. monocytogenes, B. subtilis) or on 5% sheep blood agar plates (all other organisms). Fresh colonies were inoculated into Todd Hewitt Broth (DIFCO) and were grown to stationary phase (16-18 hours; 1×10^9 CFU/1 ml) at 37° C. without shaking. Initial experiments indicated greater binding of MSRP to organisms grown to stationary phase compared to organisms used at log phase. Thus, stationary phase organisms were used in all experiments, although results were similar for log phase organisms.
(§2) All bacterial strains were harvested by centrifugation at 3500×g for 10 minutes and washed twice in cold Buffer B (20 mM Tris base at pH 8.0/150 mM NaCl/0.05% NAN3) before resuspending to a final density of approximately 1×10^9 bacteria/ml (O.D.600 =2.0).
(§3) [^35 S]methionine-labeled conditioned medium was prepared from transfected CHO[s-bSRI]-A2 cells and untransfected CHO cells. The media were designated [^35 S]s-bSR-I medium (containing s-bSR-I) and [^35 S]control medium (containing no s-bSR-I) respectively. As described by D. Resnick et al., 268 J. Biol. Chem. 3538-3545 (1993), CHO[s-bSR-1]-A2 and untransfected CHO cells were plated at a density of 9×10^5 cells/100 mm dish in medium B. Cells were grown to 80% confluence (approximately 48 hours), washed, and metabolically labeled by addition of 4.5 ml of medium A prepared with methionine- and cysteine-freeHam's F-12 and supplemented with 0.2 mM L-cysteine, and 80 μCi/mi [^35 S]methionine (Trans ^35 S-label with 70% methionine, purchased from ICN Biomedicals, Irvine, Calif.). After a 5 hour incubation at 37° C., supernatants were collected, and protease inhibitors and Buffer A+BSA (20 mM Tris base at pH 8.0/150 mM NaCl/1 mM CaCl2; containing 2 mg/ml bovine serum albumin and 0.05% NAN3) were added at final concentrations of 1 mM phenylmethylsulfonylfluoride (PMSF) (Sigma, St. Louis, Mo.), 1 μM leupeptin (Sigma), and 1 μM pepstatin (Sigma); 2:1 volume ratio of supernatant to buffer. The samples were then clarified by centrifugation (1000×g, 15 minutes, 4° C.) and stored in Falcon 2099 tubes that had been precoated with Buffer A+BSA.
(§4) Thirty minutes prior to binding assays, unlabeled L-methionine ((Sigma, St. Louis, Mo.) at 10 mM final concentration was added to suspensions of microorganisms grown as described above to minimize incorporation of free [^35 S]methionine into microbial proteins during the assays. One ml assay mixtures containing 200 μl of bacterial suspension (approximately2×10^8 bacteria), 50 μl of Buffer A (20 mM Tris base at pH 8.0/150 mM NaCl/1 mM CaCl2), and 750 μl of either [^35 S]s-bSR-I or [^35 S]control medium were prepared in microcentrifuge tubes and incubated overnight on a rotator at 4° C. Maleylated bovine serum albumin (M-BSA) was coupled to CNBr-activated Sepharose™ (Pharmacia Fine Chemicals, Piscataway, N.J.) at approximately 3 mg M-BSA/mi hydrated resin. Suspensions of M-BSA-coupled Sepharose™ beads (M-BSA beads) (25 μl ) were used in place of microorganism suspensions as positive controls.
(§5) After the overnight incubation, the bacteria or beads were pelleted by centrifugation in a microcentrifuge at 12,500×g for 5 minutes at 4° C. and washed twice with cold buffer A. In experiments examining the ability of LTA to inhibit the binding of the s-bSR-I to M-BSA beads, the beads were allowed to settle by gravity before each washing step, to prevent pelleting of LTA micelies. The washed pellets were then resuspended in SDS-PAGE sample buffer containing 2% β-mercaptoethanol, boiled for 5 minutes, and insoluble material was removed by centrifugation at 12,500×g for 2 minutes. The reduced samples were fractionated by electrophoresis through 10% polyacrylamide gels, as described by Resnick et al. (1993), and the labeled proteins were visualized by autoradiography with Kodak X-AR film. […]

For assay [3], the system named is Streptococcus agalactiae. The assay is described as above. As for the experimental part:
as §1, §2, §3, §4, §5

Assay [4] deals with Streptococcus pyogenes. The description is as above. Here is the method: as §1, §2, §3, §4, §5
For assay [5], the system named is P388D1 cells. Nature of the assay: cell binding assay: FITC-labeled S. pyogenes T1/195/2 bound to macrophage-like cells expressing MSRP. As to conditions: 30 minutes 37° C., mean ± SD of three experiments, without poly G 72±8. The class given is cell-based, murine. As for the experimental part: The ability of poly G to inhibit S. pyogenes binding was used in experiments to examine the interaction of FITC-labeled pyogenes (strain T1/195/2) with a cultured murine macrophage-like cell line, P388D1, shown previously to express MSRP by J. Ashkenas et al., 34 J. Lipid Res. 983-1000 (1993).
P388D1 cells were maintained in dishes in Ham's F-12 with 10% fetal calf serum, 100 units/ml penicillin, and 100 μg/ml streptomycin. For experiments, approximately 12,500 cells were plated on 1 cm glass cover slips, in media lacking antibiotics. Cells were allowed to adhere for at least 24-36 hours, then washed in Ham's F-12 containing 10% fetal calf serum. S. pyogenes, either unlabeled or FITC-labeled, was added (final dilution of 1:250 from a stock solution of O.D.600 =1.0) in the presence or absence of varying concentrations of poly G. Mixtures were incubated for 30 minutes at 37° C. in 5% CO2, then washed three times in PBS, and fixed with 100% cold methanol. Samples containing non-FITC labeled organisms were Gram-stained, then cover slips were mounted with Moviol and DAPCO. Slides were viewed in blinded fashion by two observers using fluorescence and phase contrast microscopy and a Nikon Microphot FXA epifluorescence microscope. The results (bacteria bound per 100 P388D1 cells) represent the means ± standard deviations determined from three experiments in which at least 100 P388D1 cells were counted for each condition.

Assay [6] relates to Gram-positive bacteria. Nature of the assay: microbial binding assay (whole cell assay), all species and strains of Table I. To be noted: for binding of [35S]s-bSR-I to Gram-positive bacteria: all species and strains tested (Table I). As for the experimental part: as §1, §2
as §3, with “The samples were then clarified by centrifugation (1000×g, 15 minutes, 4° C.) and stored in Falcon 2099 tubes that had been precoated with Buffer A+BSA.” left out

For assay [7], the system named is Listeria monocytogenes. Nature of the assay: microbial binding assay (whole cell assay) of [35S]s-bSR-I. As for the experimental part:
as §1, §2, §3, §4, §5

Assay [8] concerns Staphylococcus aureus. Described as above. As for the experimental part: as §1, §2, §3, §4, §5
For assay [9], the system named is Bacillus subtilis. The description is as above. Here is the method: as §1, §2, §3, §4, §5
Assay [10] deals with Streptococcus mutans. The assay is described as above. Here is the method:
as §1, §2, §3, §4, §5

The test system of assay [11] is S. pneumoniae. The assay is described as above. On the set-up: species or system Streptococcus pneumoniae. As to conditions: two encapsulated and one rough strain. Here is the method:
as §1, §2
[^35 S]methionine-labeled conditioned medium was prepared from transfected CHO[s-bSRI]-A2 cells and untransfected CHO cells. The media were designated [^35 S]s-bSR-I medium (containing s-bSR-I) and [^35 S]control medium (containing no s-bSR-I) respectively. […]

Regarding “maleylated BSA: maleylated bovine serum albumin, MSRP ligand”, the “competition with binding of labeled soluble receptor to poly G beads, M-BSA beads, or LTA” value (shortened to “competition with binding … or LTA”) in assay [1] is given as “successful competitors”.

As to poly C, the “competition with binding … or LTA” value in assay [1] is on record as “failed to compete”.

As to “polyGuanosine [poly G, reference compound]”, the “competition with binding of receptor to Enterococcus hirae” value in assay [2] (400 μg/ml poly G) is “competed”. For the same molecule, the “competition with binding of receptor to S. agalactiae” value in [3] (400 μg/ml poly G) is listed as “competed”. In addition, the “competition with binding of S. pyogenes to s-bSR-I” value in assay [4] (poly G 400 μ/ml added to assay mixture) is “effective competitor”. Further, the results for the “number of cell associated bacteria/100 P388D1 cells” value in assay [5] (poly G 2 μg/ml), in assay [5] (poly G 20 μg/ml) and in assay [5] (poly G 200 μg/ml) were 43±4 bacteria/100 P388D1 cells, 28±9 bacteria/100 P388D1 cells and 22±5 bacteria/100 P388D1 cells, respectively. For the same molecule, in assay [6] (extent of competition varied slightly between organisms), the “competition of poly G with [35S]s-bSR-I binding to Gram-positive bacteria” value is reported as “competitive”. The “competition with binding … or LTA” value in [1] is on record as “successful competitors”.

B1: s-bSR-I: truncated, secreted trimeric form of the type I bovine macrophage scavenger receptor containing all four extracellular domains, expressed in CHO cells (protein, UniProt P21758 77-453, looked up)
extracellular domain: KWETKNCTVGSVNADISPSPEGKGNGSEDEMRFREAVMERMSNMESRIQYLSDNEANLLDAKNFQNFSITTDQRFNDVLFQLNSLLSSIQEHENIIGDISKSLVGLNTTVLDLQFSIETLNGRVQENAFKQQEEMRKLEERIYNASAEIKSLDEKQVYLEQEIKGEMKLLNNITNDLRLKDWEHSQTLKNITLLQGPPGPPGEKGDRGPPGQNGIPGFPGLIGTPGLKGDRGISGLPGVRGFPGPMGKTGKPGLNGQKGQKGEKGSGSMQRQSNTVRLVGGSGPHEGRVEIFHEGQWGTVCDDRWELRGGLVVCRSLGYKGVQSVHKRAYFGKGTGPIWLNEVFCFGKESSIEECRIRQWGVRACSHDEDAGVTCTT
modifications: extracellular domain
notes: truncated, secreted trimeric form of the type I bovine macrophage scavenger receptor containing all four extracellular domains, expressed in CHO cells
In the case of B1, in assay [7], the “binding of [35S]s-bSR-I to Listeria monocytogenes” value is on record as “bound”. The “binding of [35S]s-bSR-I to Enterococcus hirae” value in assay [2] (strain 9790, overnight 4° C., autoradiography) is reported as “bound”. Besides, the “binding of [35S]s-bSR-I to Staphylococcus aureus” value in [8] was “bound”. The “[35S]s-bSR-I binding, capsule-minus transposon mutants versus parent strains” value in assay [8] (S. aureus isogenic mutants) and in [3] (S. agalactiae isogenic mutants) was “equivalently or better” throughout. Further, the “binding of [35S]s-bSR-I to Bacillus subtilis” value in assay [9] is “bound”. Also, the “binding of [35S]s-bSR-I to Streptococcus mutans” value in assay [10] is “bound”. The “binding of [35S]s-bSR-I to S. agalactiae” value in assay [3] (overnight 4° C., autoradiography) was “bound”. Further, the “binding of [35S]s-bSR-I to S. pyogenes” value in assay [4] (eleven strains, seven different M protein types (Table I), overnight 4° C., SDS-PAGE/autoradiography) is on record as “bound”. In [4] (organisms preincubated with 50 μg/ml chloramphenicol or 0.05% NaN3, or killed at 60° C. for 10 minutes), the “dependence of [35S]s-bSR-I binding on bacterial protein synthesis or viability” value is reported as “neither decreased”. In addition, the “specificity of [35S]s-bSR-I binding to S. pyogenes” value in [4] (strain T1/195/2) is listed as “specific”. Moreover, the “s-bSR-I binding, M protein-negative mutant versus parent” value in assay [4] (type 28 strain T28/150A/5 and spontaneous M protein-negative mutant T28/51/4-4) was “equivalently”. Further, the “[35S]s-bSR-I binding, acapsular mutant versus wild type” value in assay [4] (wild type 87-282 and hyaluronic acid-negative transposon mutant TX4) was “equally well”. In addition, in assay [11], the “binding of [35S]s-bSR-I to S. pneumoniae” value is given as “minimal binding”. Moreover, the “binding of [35S]s-bSR-I to Gram-positive bacteria” value is “bound” in assay [6] and “Bound” in assay [6] (listed as secreted Type I Bovine MSRP).
